Biological target: the molecule itself
Test: SEC-MALS; SEC-MALLS, S-200 Superdex 10/300, 0.5 ml/min, 1x PBS (legend: TBS), protein at 33 µM; monomer and dimer

B1: purified recombinant mouse CAVII protein (mCAVII) (enzyme, UniProt Q9ERQ8 1-264, looked up)
chain: MTGHHCWGYGQDDGPSNWHKLYPIAQGDRQSPINIISSQAVYSPSLQPLELFYEACMSLSITNNGHSVQVDFNDSDDRTVVSGGPLEGPYRLKQLHFHWGKKRDMGSEHTVDGKSFPSELHLVHWNAKKYSTFGEAAAAPDGLAVVGVFLETGDEHPSMNRLTDALYMVRFKDTKAQFSCFNPKCLLPTSRHYWTYPGSLTTPPLSESVTWIVLREPIRISERQMEKFRSLLFTSEDDERIHMVDNFRPPQPLKGRVVKASFQA
notes: carbonic anhydrase VII, mouse; theoretical size of the monomer printed as 30.5 kDa; also called carbonic anhydrase VII; source: CHOEBNALT85 cell line, produced as a secreted protein, purified
- stoichiometry N: 2

— doi:10.1101/736868 (bioRxiv, 2019)
